US20170369592A1, “NOVEL ANTI-FIBROBLAST ACTIVATION PROTEIN (FAP) ANTIBODIES AND USES DERIVED THEREOF” (Mabimmune Diagnostics AG, priority 2015, published 2017)

Experiments:
[1] = test system: tumor growth in NSCLC and MCRC; conditions: mouse models; cited from earlier work
[2] = cyclization; cited from earlier work
[3] = pH 7.8; cited from earlier work
[4] = target: T1, recombinant human Fibroblast Activation Protein (FAP) (human, UniProt Q12884 26-760); assay: ELISA, tagged rhFAP captured on the plate with an anti-tag antibody, HRP-labelled NI-206.82C2, TMB, OD 450 nm; axis unit as printed (pM) [continued) B]
T1 construct: Bought recombinant his-tagged protein; Captured (sFAP) and directly coated (FAP) are two assay formats of this one molecule; also called rFAP; rhuFAP; not shown: N-terminus 6x histidine tag
T1 sequence (looked up): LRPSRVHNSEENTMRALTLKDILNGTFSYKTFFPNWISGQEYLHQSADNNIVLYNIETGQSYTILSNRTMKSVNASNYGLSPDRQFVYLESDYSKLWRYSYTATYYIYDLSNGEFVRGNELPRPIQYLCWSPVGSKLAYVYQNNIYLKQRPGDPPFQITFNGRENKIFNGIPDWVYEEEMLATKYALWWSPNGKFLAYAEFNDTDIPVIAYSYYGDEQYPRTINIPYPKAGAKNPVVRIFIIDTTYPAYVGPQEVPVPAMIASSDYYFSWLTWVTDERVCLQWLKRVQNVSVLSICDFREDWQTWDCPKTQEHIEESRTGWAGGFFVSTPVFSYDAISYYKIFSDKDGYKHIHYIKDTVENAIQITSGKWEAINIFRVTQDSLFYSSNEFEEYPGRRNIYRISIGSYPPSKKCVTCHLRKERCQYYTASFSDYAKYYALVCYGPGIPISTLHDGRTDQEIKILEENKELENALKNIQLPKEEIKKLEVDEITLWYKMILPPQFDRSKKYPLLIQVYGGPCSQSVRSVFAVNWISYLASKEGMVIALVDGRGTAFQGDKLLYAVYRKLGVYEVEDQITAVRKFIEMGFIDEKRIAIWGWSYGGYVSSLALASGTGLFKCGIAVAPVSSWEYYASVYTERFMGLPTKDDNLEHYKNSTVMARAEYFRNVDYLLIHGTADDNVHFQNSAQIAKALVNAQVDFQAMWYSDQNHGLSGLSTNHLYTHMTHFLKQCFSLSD
From the text: Active recombinant human enzymes evaluated in this assay include: Fibroblast Activation Protein (FAP; Sino Biologicals, 10464-H07H), Dipeptidyl Peptidase IV (DPPIV, BPS Bioscience 80040), Dipeptidyl Peptidase 8 (DPP8, BPS Bioscience 80080), Dipeptidyl Peptidase 9 (DPP9, BPS Bioscience 80080), and Prolyl Oligopeptidase/Prolyl Endopeptidase (POP/PREP, BPS Bioscience 80105). Each recombinant peptidase was expressed with a purification tag, and attached to the 96 well ELISA plate using either a mouse anti-Histidine antibody (CloneTech), or a mouse anti-Glutathione S-transferase (GST, Sino Biologicals, 111213-MM02) tag antibody. […] H-Gly-Pro-AMC (ATT Bioquest, 13450) was used to validate the presence and activity of DPP4, DPP9, and DPP8. Z-Gly-Pro-AMC (BaChem, 11145) was used to evaluate the activity of FAP and POP/PREP. […] Following a washing step, bound antibody was detected using 3,3′,5,5′-Tetramethylbenzidine (TMB) substrate.

[5] = target: T1, recombinant human Fibroblast Activation …; assay: cell-based or functional assay
[6] = target: T2, active recombinant murine FAP (mouse, UniProt P97321 26-761); assay: cell-based or functional assay
T2 sequence (looked up): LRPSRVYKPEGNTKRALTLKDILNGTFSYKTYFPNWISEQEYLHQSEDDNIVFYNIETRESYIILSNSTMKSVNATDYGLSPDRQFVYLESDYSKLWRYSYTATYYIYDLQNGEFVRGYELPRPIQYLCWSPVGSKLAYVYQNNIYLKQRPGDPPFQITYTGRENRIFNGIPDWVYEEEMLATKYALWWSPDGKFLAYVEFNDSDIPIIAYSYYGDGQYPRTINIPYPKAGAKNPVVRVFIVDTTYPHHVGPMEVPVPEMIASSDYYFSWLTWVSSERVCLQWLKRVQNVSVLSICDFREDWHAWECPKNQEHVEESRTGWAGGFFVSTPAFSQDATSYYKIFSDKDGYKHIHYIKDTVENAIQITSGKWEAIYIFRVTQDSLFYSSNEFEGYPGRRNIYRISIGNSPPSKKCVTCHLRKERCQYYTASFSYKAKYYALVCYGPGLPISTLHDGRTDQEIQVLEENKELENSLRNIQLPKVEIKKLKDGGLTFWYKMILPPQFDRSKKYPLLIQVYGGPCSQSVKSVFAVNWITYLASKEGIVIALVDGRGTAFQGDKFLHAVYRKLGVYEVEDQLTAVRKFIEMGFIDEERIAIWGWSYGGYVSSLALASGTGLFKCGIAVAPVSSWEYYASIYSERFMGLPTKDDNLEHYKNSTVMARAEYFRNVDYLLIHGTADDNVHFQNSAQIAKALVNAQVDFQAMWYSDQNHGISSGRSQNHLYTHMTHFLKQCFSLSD

[7] = target: T3, recombinant human Dipeptidyl Peptidase IV (DPPIV) (human, UniProt P27487 29-766, limits assumed); assay: ELISA, recombinant human CD26 on the plate, NI-206.82C2 detected with HRP goat anti-human antibody, OD450
T3 construct: Bought; also called rhDPPIV; DPP4
T3 sequence (P27487 29-766 limits assumed): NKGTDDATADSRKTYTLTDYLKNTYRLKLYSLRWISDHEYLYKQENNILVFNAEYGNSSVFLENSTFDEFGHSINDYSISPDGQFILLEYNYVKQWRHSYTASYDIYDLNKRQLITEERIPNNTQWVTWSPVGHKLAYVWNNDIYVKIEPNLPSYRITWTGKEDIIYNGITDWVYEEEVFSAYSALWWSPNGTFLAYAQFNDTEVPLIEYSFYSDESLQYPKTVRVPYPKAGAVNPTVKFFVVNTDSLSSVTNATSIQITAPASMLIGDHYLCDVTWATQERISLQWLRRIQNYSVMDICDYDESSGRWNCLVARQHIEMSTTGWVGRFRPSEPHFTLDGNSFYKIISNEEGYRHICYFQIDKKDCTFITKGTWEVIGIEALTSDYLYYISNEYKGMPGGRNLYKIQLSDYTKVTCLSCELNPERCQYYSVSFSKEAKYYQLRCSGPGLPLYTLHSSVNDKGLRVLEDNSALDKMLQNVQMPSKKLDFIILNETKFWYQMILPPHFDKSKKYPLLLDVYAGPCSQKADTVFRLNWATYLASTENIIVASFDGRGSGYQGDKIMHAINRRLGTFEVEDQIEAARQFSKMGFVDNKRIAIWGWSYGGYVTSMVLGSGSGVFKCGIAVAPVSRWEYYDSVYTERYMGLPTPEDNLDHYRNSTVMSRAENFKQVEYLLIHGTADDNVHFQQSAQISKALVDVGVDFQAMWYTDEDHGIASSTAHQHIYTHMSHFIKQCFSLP

[8] = target: T1, recombinant human Fibroblast Activation …; assay: cell-based or functional assay; remark: listed apart in the source
[9] = target: directly coated FAP peptides mixture (cFAP); assay: Direct ELISA, mixture of FAP-specific peptides directly coated; format: binding, human; conditions: non-linear regression
Method: ELISA assays were performed with varying antibody concentrations to validate the binding of the exemplary antibodies of the present invention to FAP and to be able to determine their half maximal effective concentration (EC50). For the exemplary recombinant human NI-206.82C2, NI-206.59B4, NI-206.22F7, NI-206.27E8, NI-206.12G4 and NI-206.17A6 antibodies, 96-well microplates (Costar, Corning, USA) were coated with FAP, with a mixture of the 3 peptides or with BSA (Sigma-Aldrich, Buchs, Switzerland) diluted to a concentration of 5 μg/ml in carbonate ELISA coating buffer (15 mM Na2CO3, 35 mM NaHCO3, pH 9.4) for the direct ELISA. For the capture ELISA, the microplates were coated with mouse anti-His monoclonal antibody (Clontech) diluted to a concentration of 3 μg/ml in PBS, the plates were then blocked, FAP or BSA were diluted to a concentration of 2 μg/ml in PBS and added to the plates to be captured. The binding efficiency of the antibodies was then tested. The exemplary NI-206.82C2 antibody specifically and strongly binds to the captured FAP and less efficiently to the directly coated FAP. The exemplary NI-206.59B4 antibody specifically, strongly and similarly binds to the captured FAP and to the directly coated FAP.
The EC50 values were estimated by a non-linear regression using GraphPad Prism (San Diego, USA) software. […] The binding of NI-206.12G4 towards sFAP was not tested.

Molecule: N[C@@H](CCC(=O)O)C(=O)N1CCC[C@H]1B(O)O [PT-630]
- tumor growth [1]: abrogate tumor growth
- in-vivo stability [2]: poor in-vivo stability

Molecule: CC(C)[C@H](N)C(=O)N1CCC[C@H]1B(O)O [Talabostat, Val-boroPro]
- stability of inhibitory activity in aqueous media [3]: rapidly loses inhibitory activity

B1: NI-206.82C2 (antibody, V domains shown)
VH: QVQLQQSGPGLVKPSQTLSLTCAISGDSVSSNSVTWNWIRQSPSRGLEWLGRTYYRSKWYNDYAVSVKGRITINPDTSKNQFYLQLKSVTPEDAAVYYCARDSSILYGDYWGQGTLVTVSS
VL: QAVLTQPSSLSASPGASASLTCTLPSGINVGTYRIFWFQQKPGSPPQYLLSYKSDSDNHQGSGVPSRFSGSKDASANAGILLISGLQSEDEADYYCMIWHSSAWVFGGGTKLTVL
notes: Labelled with HRP or Cy5 in some assays; also called HRP-labelled 82C2
- EC50 (read off the curve) [4]: 0.04 to 0.05 nM
- IC50, inhibition of rhFAP gelatinase activity (DQ-gelatin cleavage) [5]: 7.7 nM
- IC50 (read off the curve) [continued) B] [6]: ~60 nM
- binding result [7]: no binding (tested: 20 nM)
- IC50 (read off the curve) [8]: ~10 nM

B2: NI-206.59B4: recombinant human-derived monoclonal anti-FAP antibody, variable regions in FIG. 1 (antibody, V domains shown)
VH: QVQLVQSGAEVKKPGASVKVSCKTSGYTFTDYYIHWVRQAPGQGLEWMGWINPNRGGTNYAQKFQGRVTMTRDTSIATAYMELSRLRSDDTAVYYCATASLKIAAVGTFDCWGQGTLVTVSS
VL: SYELTQPPSVSVSPGQTARITCSGDALSKQYAFWFQQKPGQAPILVIYQDTKRPSGIPGRFSGSSSGTTVTLTISGAQADDEADYYCQSADSSGTYVFGTGTKVTVL
- EC50, binding to directly coated FAP peptides mixture (cFAP) [9]: did not show any binding

B3: NI-206.27E8: recombinant human-derived monoclonal anti-FAP antibody, variable regions in FIG. 1 (antibody, V domains shown)
VH: EVQLVESGGGLVEPGGSLRLSCAASGFTFSDAWMNWVRQAPGKGLEWVGRIKTKSDGGTTDYAAPVRGRFSISRDDSKNTLFLEMNSLKTEDTAIYYCFITVIVVSSESPLDHWGQGTLVTVSS
VL: SYELTQPPSVSVSPGQTARITCSGDELPKQYAYWYQQKPGQAPVLVIYKDRQRPSGIPERFSGSSSGTTVTLTISGVQAEDEADYYCQSAYSINTYVIFGGGTKLTVL
- EC50, binding to directly coated FAP peptides mixture (cFAP) [9]: did not show any binding

B4: NI-206.17A6: recombinant human-derived monoclonal anti-FAP antibody, variable regions in FIG. 1 (antibody, V domains shown)
VH: QVQLQESGPGLVRSTETLSLTCLVSGDSINSHYWSWLRQSPGRGLEWIGYIYYTGPTNYNPSLKSRVSISLGTSKDQFSLKLSSVTAADTARYYCARNKVFWRGSDFYYYMDVWGKGTTVTVSS
VL: EIVLTQSPGTLSLSLGERATLSCRASQSLANNYLAWYQQKPGQAPRLLMYDASTRATGIPDRFSGSGSGTDFTLTISRLEPEDFAVYYCQQFVTSHHMYIFGQGTKVEIK
- EC50, binding to directly coated FAP peptides mixture (cFAP) [9]: did not show any binding

B5: NI-206.12G4: recombinant human-derived monoclonal anti-FAP antibody, variable regions in FIG. 1 (antibody, V domains shown)
VH: EVQLVESGGGLVKPGGSLRLSCAASGFTFSDYYMSWIRQAPGKGLEWISYISSGSSYTNYADSVKGRFTISRDNAKKSVYLEVNGLTVEDTAVYYCARVRYGDREMATIGGFDFWGQGTLVTVSS
VL: SYELTQPPSVSVSPGQTARITCSGDALPKQYAYWYQQSPGQAPVLVIYKDSERPSGIPERFSGSSSGTTVTLTISGVQAEDEADYYCQSADSGGTSRIFGGGTKLTVL
- EC50, binding to directly coated FAP peptides mixture (cFAP) [9]: did not show any binding
